Consider 2 molecules from patent US20170131280A1 (GENERAL HOSPITAL, published 2017).

The target of assay [1] is Raptor, endogenous protein of 293T cells (UniProt Q8N122 1-1335). The experiment in a line: co-immunoprecipitation from 293T cell lysates, western blot (FIG. 1E). The protocol:
(§1) Rictor interaction required the C-terminal portion of SAKT that encompass the cytoplasmic region.
(§2) Protein Analyses. For immunoblotting, cells were lysed in RIPA buffer (Cell Signaling Technology) supplemented with HALT™ protease and phosphatase inhibitor cocktails (Thermo Scientific). Western blot analysis was carried out according to standard methods (8). Equal amounts of total protein from lysates were subjected to SDS-PAGE, transferred to PVDF membrane (Invitrogen), and membranes were probed by overnight incubation with appropriate primary antibodies. Bound antibodies were visualized with HRP-conjugated secondary antibodies and ECL detection reagent (GE Healthcare) and quantification of protein bands (Multigauge V3.0, Fujifilm). For standard immunoprecipitation experiments, proteins were extracted by incubation on ice in IP Lysis Buffer and all protein extracts were pre-cleared with Protein-A/G agarose (Santa Cruz Biotechnology) and incubated with Protein A/G agarose bound with antibodies against FLAG M2 (Sigma), Rictor (#9476, Cell Signaling Technology), and SAKT (Santa Cruz Biotechnology) or control IgG from mouse, and rabbit at 4° C. Immunoprecipitates were washed four times with lysis buffer and boiled for 10 minutes in 1× LDS sample buffer (Invitrogen). The eluted proteins were immunoblotted with the antibodies indicated above. […]

Assay [2] addresses mTor, endogenous protein of 293T cells (human, UniProt P42345 1-2549). Described as above. The protocol:
as §1, §2

Assay [3] concerns the target Raptor, endogenous protein of murine BM cells (mouse, UniProt Q8K4Q0 1-1335). The experiment in a line: co-immunoprecipitation from BM cell lysates, western blot (FIG. 1E). How it is done:
as §1, §2

The target in assay [4] is mTor, endogenous protein of murine BM cells (mouse, UniProt Q9JLN9 1-2549). Described as above. How it is done:
as §1, §2

Sequence of Raptor, endogenous protein of 293T cells (Q8N122 whole entry): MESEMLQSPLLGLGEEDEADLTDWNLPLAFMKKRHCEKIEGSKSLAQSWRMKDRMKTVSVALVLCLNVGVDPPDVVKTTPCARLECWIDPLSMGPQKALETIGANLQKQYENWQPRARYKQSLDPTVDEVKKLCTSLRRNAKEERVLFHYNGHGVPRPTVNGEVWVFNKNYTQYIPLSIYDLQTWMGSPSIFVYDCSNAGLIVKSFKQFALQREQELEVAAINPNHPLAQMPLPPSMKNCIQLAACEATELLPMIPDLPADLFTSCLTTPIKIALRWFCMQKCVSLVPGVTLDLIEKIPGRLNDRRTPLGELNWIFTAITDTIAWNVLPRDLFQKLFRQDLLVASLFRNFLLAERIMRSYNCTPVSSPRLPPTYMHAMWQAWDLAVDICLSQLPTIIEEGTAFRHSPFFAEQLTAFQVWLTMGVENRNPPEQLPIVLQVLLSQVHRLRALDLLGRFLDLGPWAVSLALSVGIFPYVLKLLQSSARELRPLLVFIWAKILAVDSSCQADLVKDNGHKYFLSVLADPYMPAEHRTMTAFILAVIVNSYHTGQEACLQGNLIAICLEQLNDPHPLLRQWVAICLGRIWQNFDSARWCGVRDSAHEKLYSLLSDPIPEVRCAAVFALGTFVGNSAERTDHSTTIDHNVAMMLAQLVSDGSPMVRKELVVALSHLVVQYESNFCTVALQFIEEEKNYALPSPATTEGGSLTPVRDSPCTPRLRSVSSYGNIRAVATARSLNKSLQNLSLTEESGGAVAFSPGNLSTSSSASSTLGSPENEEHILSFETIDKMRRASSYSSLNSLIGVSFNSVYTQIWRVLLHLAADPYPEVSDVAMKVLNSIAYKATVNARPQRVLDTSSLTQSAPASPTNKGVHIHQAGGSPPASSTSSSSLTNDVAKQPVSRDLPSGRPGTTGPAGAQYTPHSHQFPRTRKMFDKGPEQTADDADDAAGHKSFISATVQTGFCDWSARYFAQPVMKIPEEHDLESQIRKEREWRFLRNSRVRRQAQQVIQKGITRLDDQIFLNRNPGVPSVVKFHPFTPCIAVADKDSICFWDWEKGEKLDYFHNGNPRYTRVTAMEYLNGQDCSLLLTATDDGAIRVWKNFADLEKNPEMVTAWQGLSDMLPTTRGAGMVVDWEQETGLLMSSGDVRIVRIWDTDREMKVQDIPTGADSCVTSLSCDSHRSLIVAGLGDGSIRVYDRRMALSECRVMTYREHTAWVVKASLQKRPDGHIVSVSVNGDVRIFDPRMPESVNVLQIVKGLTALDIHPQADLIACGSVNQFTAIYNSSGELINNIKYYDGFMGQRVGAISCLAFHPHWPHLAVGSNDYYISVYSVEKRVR
Sequence of Raptor, endogenous protein of murine BM cells (Q8K4Q0 whole entry): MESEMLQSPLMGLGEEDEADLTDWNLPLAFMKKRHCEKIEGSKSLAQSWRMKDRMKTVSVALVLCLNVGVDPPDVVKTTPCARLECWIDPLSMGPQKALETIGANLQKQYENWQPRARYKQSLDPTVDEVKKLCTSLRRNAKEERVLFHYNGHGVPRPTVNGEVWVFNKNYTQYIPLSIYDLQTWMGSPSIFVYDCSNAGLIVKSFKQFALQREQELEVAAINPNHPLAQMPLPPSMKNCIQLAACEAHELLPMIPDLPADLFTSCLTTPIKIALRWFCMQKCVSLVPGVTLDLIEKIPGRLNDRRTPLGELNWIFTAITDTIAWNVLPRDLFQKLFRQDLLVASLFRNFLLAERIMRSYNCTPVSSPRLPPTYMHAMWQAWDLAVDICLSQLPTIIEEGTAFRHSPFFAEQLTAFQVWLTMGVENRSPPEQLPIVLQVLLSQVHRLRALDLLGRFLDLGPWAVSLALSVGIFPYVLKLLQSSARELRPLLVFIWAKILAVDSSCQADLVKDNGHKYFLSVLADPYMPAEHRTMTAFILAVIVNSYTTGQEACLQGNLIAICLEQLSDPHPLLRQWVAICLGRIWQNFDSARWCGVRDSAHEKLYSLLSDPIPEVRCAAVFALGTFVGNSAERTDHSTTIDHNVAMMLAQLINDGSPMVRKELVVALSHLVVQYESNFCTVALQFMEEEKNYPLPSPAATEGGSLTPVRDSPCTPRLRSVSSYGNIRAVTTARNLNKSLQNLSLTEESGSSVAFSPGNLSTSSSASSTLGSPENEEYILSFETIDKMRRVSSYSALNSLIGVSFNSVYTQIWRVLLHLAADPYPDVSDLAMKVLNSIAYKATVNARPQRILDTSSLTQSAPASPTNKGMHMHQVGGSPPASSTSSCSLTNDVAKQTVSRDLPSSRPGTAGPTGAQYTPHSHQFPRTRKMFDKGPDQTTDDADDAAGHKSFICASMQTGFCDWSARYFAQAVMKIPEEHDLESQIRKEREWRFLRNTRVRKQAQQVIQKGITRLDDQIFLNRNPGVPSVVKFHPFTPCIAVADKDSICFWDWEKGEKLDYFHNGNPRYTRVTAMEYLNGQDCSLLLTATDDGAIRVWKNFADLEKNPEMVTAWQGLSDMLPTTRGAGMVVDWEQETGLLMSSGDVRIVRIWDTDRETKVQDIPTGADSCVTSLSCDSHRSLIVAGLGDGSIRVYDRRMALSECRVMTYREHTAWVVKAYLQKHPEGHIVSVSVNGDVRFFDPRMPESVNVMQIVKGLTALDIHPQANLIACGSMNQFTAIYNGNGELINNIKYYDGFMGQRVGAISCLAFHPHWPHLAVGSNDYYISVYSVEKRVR

B1: Suppressor of AKT (SAKT), endogenous protein of 293T cells (receptor, UniProt Q86TY3 28-774, looked up)
chain: FPKIERRREIAHVHAEKGQSDKMNTDDLENSSVTSKQTPQLVVSEDPMMMSAVPSATSLNKAFSINKETQPGQAGLMQTERPGVSTPTESGVPSAEEVFGSSQPERISPESGLAKAMLTIAITATPSLTVDEKEELLTSTNFQPIVEEITETTKGFLKYMDNQSFATESQEGVGLGHSPSSYVNTKEMLTTNPKTEKFEADTDHRTTSFPGAESTAGSEPGSLTPDKEKPSQMTADNTQAAATKQPLETSEYTLSVEPETDSLLGAPEVTVSVSTAVPAASALSDEWDDTKLESVSRIRTPKLGDNEETQVRTEMSQTAQVSHEGMEGGQPWTEAAQVALGLPEGETHTGTALLIAHGNERSPAFTDQSSFTPTSLMEDMKVSIVNLLQSTGDFTESTKENDALFFLETTVSVSVYESEADQLLGNTMKDIITQEMTTAVQEPDATLSMVTQEQVATLELIRDSGKTEEEKEDPSPVSDVPGVTQLSRRWEPLATTISTTVVPLSFEVTPTVEEQMDTVTGPNEEFTPVLGSPVTPPGIMVGEPSISPALPALEASSERRTVVPSITRVNTAASYGLDQLESEEGQEDEDEEDEEDEDEEEEDEEEDEEDKDADSLDEGLDGDTELPGFTLPGITSQEPGLEEGNMDLLEGATYQVPDALEWEQQNQGLVRSWMEKLKDKAGYMSGMLVPVGVGIAGALFILGALYSIKVMNRRRRNGFKRHKRKQREFNSMQDRVMLLADSSEDEF
notes: also called C14ORF37
Consider B1, for which the binding result in assay [1] and in assay [2] was “no binding” each time.

B2: Suppressor of AKT (SAKT), endogenous protein of murine bone marrow (BM) cells (receptor, mouse, UniProt Q8BT18 48-775, looked up)
chain: FPKVERRETAQEYAEKEQSQKMNTDDQENISFAPKYMLQQMSSEAPMVLSEGPSEIPLIKVFSVNKESHLPGAGLLHPTSPGVYSSSEPVVSASEQEPGPSLLERMSSEHSLSKVMLTVAVSSPASLNPDQEGPYNSLSTQPIVAAVTDVTHGSLDYLDNQLFAAKSQEAVSLGNSPSSSINTKEPEIIKADAAMGTTVVPGVDSTGDMEPDRERPSEMAADDGQSTTTKYLVTIPNNFLTTEPTAGSILGDAKVTVSVSTAGPVSSIFNEEWDDTKFESISRGRPPEPGDNAETQMRTKPPHGTYESFEGTEESPSSTAVLKVAPGHLGGEPALGTALVTALGDERSPVLTHQISFTPMSLAEDPEVSTMKLFPSAGGFRASTQGDRTQLSSETAFSTSQYESVPQQEAGNVLKDITQERKMATQAMNTTSPVVTQEHMATIEVPRGSGEPEEGMPSLSPVPAEVADAELSRRGESLATPASTTVVPLSLKLTSSMEDLMDTITGPSEEFIPVLGSPMAPPAMTVEAPTISSALPSEGRTSPSISRPNTAASYGLEQLESEEVEDDEDEEDEEDEEEEEEDEEDEEDEEDKETDSLYKDFDGDTEPPGFTLPGITSQEPDIRSGSMDLLEVATYQVPETIEWEQQNQGLVRSWMEKLKDKAGYMSGMLVPVGVGIAGALFILGALYSIKVMNRRRRNGFKRHKRKQREFNSMQDRVMLLADSSEDEF
notes: Endogenous protein immunoprecipitated from murine BM cell lysates; also called C14ORF37
Regarding B2, the binding result in assay [3] and in assay [4] was “no binding” each time.
